Test results from article PMC7484405.

T1: M2-1 WT (Human respiratory syncytial virus …, UniProt P04545 1-194)
T1 sequence: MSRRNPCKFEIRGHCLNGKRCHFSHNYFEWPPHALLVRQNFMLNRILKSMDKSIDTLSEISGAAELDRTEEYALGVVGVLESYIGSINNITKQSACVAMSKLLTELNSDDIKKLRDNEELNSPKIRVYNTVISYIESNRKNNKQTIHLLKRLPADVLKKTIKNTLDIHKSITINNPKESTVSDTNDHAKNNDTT

B1: SH 13-nt positive-sense gene-end RNA (ssRNA)
RNA: AGUUAAUUAAAAA
B2: SH7 (ssRNA)
RNA: AGUUAAU

Tests used:
M2-1 WT [1] = biological target: T1, M2-1 WT; experiment: MST
M2-1 WT [2] = biological target: T1, M2-1 WT; experiment: X-ray crystallography

| Binder | Kd (M2-1 WT [1]) [nM] | binding result (M2-1 WT [2]) |
| --- | --- | --- |
| B1 | 870 |  |
| B2 |  | binds |
